Drawing on the RNAGym collection of RNA variant scans (doi:10.7554/elife.80360), this text covers self-cleavage for 38 variants.

The chains are these.
B1: Hairpin Ribozyme (parent)
chain: GUCCUCUUUCACGUGCGCGUGAAAGAGAGAAGUGAACCAGAGAAACACACGUUGUGGUAUAUUACCUGGUA

The variants in the data set derive from B1. Nature of the data set: self-cleavage, relative activity (ratio to wild type); higher = more cleavage; co-transcriptional.
Regarding GUCCUCUUUCACGUGCGCGUGAAAGAGAGAAGUGAACUAGAGAAAUACACGUUGUGGUAUAUUACCUGGUA, the self-cleavage worked out at 0.0928.
Consider GUCCUCUUUCACGUGCGCGUGAAAGAGAGAAGUGAACCCGAGAAACAAACGUUGUGGUAUAUUACCUGGUA, for which the self-cleavage amounted to 0.171.
As to GUCCUCUUUCACGUGCGCGUGAAAGAGAGAAGUGAACCCGAGAAACACACGUUGUGGUAUGUUACCUGGUA, the self-cleavage is 0.131.
On to GUCCUCUUUCACGUGCGCGUGAAAGAGAGAAGUGAACUAGAGAAACACACGUUGUGGGAUAUUACCUGGUA, for which the self-cleavage was 0.447.
With GUCCUCUUUCACGUGCGCGUGAAAGAGAGAAGUGAACUAGAGAAACACACGUUGUGGUAUAUUACGUGGUA, the self-cleavage was found to be 0.255.
On to GUCCUCUUUCACGUGCGCGUGAAAGAGAGAAGUGAACUAGAGAAACACACGUUGUGGUAUAUUACCUGUUA, for which the self-cleavage amounted to 0.283.
With GUCCUCUUUCACGUGCGCGUGAAAGAGAGAAGUGAACCCGAGGAACACACGUUGUGGUAUAUUACCUGGUA, the self-cleavage came out at 0.085.
In the case of GUCCUCUUUCACGUGCGCGUGAAAGAGAGAAGUGAACUAGAGAAACACACGUUGUGGUAUCUUACCUGGUA, the self-cleavage was 0.197.
Consider GUCCUCUUUCACGUGCGCGUGAAAGAGAGAAGUGAACUAGAGAAACACACGUUGUGGUAUGUUACCUGGUA, for which the self-cleavage worked out at 0.26.
As for GUCCUCUUUCACGUGCGCGUGAAAGAGAGAAGUGAACCCGAGAAACACACGUUGUGGUAUAUUACCUGGUU, the self-cleavage was determined as 0.136.
Turning to GUCCUCUUUCACGUGCGCGUGAAAGAGAGAAGUGAACCCGAGAAACACACGUUGUGGUAUAUUACCUGGUG, the self-cleavage turned out to be 0.248.
Take GUCCUCUUUCACGUGCGCGUGAAAGAGAGAAGUGAACCCGAGAAACGCACGUUGUGGUAUAUUACCUGGUA: the self-cleavage was 0.172.
The figure for GUCCUCUUUCACGUGCGCGUGAAAGAGAGAAGUGAACCGGAGAAACCCACGUUGUGGUAUAUUACCUGGUA is 0.166; for GUCCUCUUUCACGUGCGCGUGAAAGAGAGAAGUGAACCGGAGGAACACACGUUGUGGUAUAUUACCUGGUA it is 0.0922.
Consider GUCCUCUUUCACGUGCGCGUGAAAGAGAGAAGUGAACUAGAGAAACACACGUUAUGGUAUAUUACCUGGUA, for which the self-cleavage turned out to be 0.269.
In the case of GUCCUCUUUCACGUGCGCGUGAAAGAGAGAAGUGAACCCGUGAAACACACGUUGUGGUAUAUUACCUGGUA, the self-cleavage turned out to be 0.406.
For GUCCUCUUUCACGUGCGCGUGAAAGAGAGAAGUGAACUAGAGAAACACAUGUUGUGGUAUAUUACCUGGUA, the self-cleavage was 0.249.
The figure for GUCCUCUUUCACGUGCGCGUGAAAGAGAGAAGUGAACCCGAGAAACACACGUUGUGGUAUAUUACCCGGUA is 0.149; for GUCCUCUUUCACGUGCGCGUGAAAGAGAGAAGUGAACCCGAGAAACACACGUUGUGGUCUAUUACCUGGUA it is 0.114.
As for GUCCUCUUUCACGUGCGCGUGAAAGAGAGAAGUGAACCCGAGAAACACACGUUGUGGUGUAUUACCUGGUA, the self-cleavage was found to be 0.126.
The figure for GUCCUCUUUCACGUGCGCGUGAAAGAGAGAAGUGAACCCGAGAAACACACGUUGUGGUUUAUUACCUGGUA is 0.172.
For GUCCUCUUUCACGUGCGCGUGAAAGAGAGAAGUGAACCGGAGAAUCACACGUUGUGGUAUAUUACCUGGUA, the self-cleavage was 0.111.
For the variant GUCCUCUUUCACGUGCGCGUGAAAGAGAGAAGUGAACCCGAGAAACACACAUUGUGGUAUAUUACCUGGUA, the self-cleavage came to 0.751.
With GUCCUCUUUCACGUGCGCGUGAAAGAGAGAAGUGAACCCGAGAAACACACGUUGUGGUAUAUUAACUGGUA, the self-cleavage came out at 0.233.
Regarding GUCCUCUUUCACGUGCGCGUGAAAGAGAGAAGUGAACCCGAGAAACACACGUUGUGGUAAAUUACCUGGUA, the self-cleavage turned out to be 0.359.
With GUCCUCUUUCACGUGCGCGUGAAAGAGAGAAGUGAACCCGAGAAACACACGUUGUGGUAGAUUACCUGGUA, the self-cleavage came out at 0.33.
The figure for GUCCUCUUUCACGUGCGCGUGAAAGAGAGAAGUGAACCCGAGAAACACACGUUGUGGUACAUUACCUGGUA is 0.784; for GUCCUCUUUCACGUGCGCGUGAAAGAGAGAAGUGAACCCGAGAAACACACGUUGUGGUAUAUUACCUGGCA it is 0.247; for GUCCUCUUUCACGUGCGCGUGAAAGAGAGAAGUGAACUAGAGAAACACACGUUGUGUUAUAUUACCUGGUA it is 0.175.
Turning to GUCCUCUUUCACGUGCGCGUGAAAGAGAGAAGUGAACCCGAGAAGCACACGUUGUGGUAUAUUACCUGGUA, the self-cleavage turned out to be 0.105.
Regarding GUCCUCUUUCACGUGCGCGUGAAAGAGAGAAGUGAACCCGAGAAACACACGUUUUGGUAUAUUACCUGGUA, the self-cleavage worked out at 0.103.
With GUCCUCUUUCACGUGCGCGUGAAAGAGAGAAGUGAACUAGAGAAACACACGUUGUGGUAUAUUAUCUGGUA, the self-cleavage was found to be 0.12.
Under GUCCUCUUUCACGUGCGCGUGAAAGAGAGAAGUGAACCCGAGAAACACACGUUGUGGUAUAUGACCUGGUA stands 0.122; under GUCCUCUUUCACGUGCGCGUGAAAGAGAGAAGUGAACUAGAGAAACACACGUUGUGGUGUAUUACCUGGUA, 0.194.
GUCCUCUUUCACGUGCGCGUGAAAGAGAGAAGUGAACUAGAGAAACAUACGUUGUGGUAUAUUACCUGGUA: the self-cleavage is 0.174.
Turning to GUCCUCUUUCACGUGCGCGUGAAAGAGAGAAGUGAACUAGAGAAACAGACGUUGUGGUAUAUUACCUGGUA, the self-cleavage worked out at 0.123.
For the variant GUCCUCUUUCACGUGCGCGUGAAAGAGAGAAGUGAACCCGAGAAACACACGUUGUGAUAUAUUACCUGGUA, the self-cleavage worked out at 0.215.
The figure for GUCCUCUUUCACGUGCGCGUGAAAGAGAGAAGUGAACCCGAGAAACACACGUUGUGGUAUAUUACCUUGUA is 0.229.
